# According to the supplement of paper PMC10126150:
# ± gives the standard deviation of the averaged measurements.
# Tested on: ATP
# Assay: switch fluorescence ratio, 500 uM ATP over buffer (Cy3 cluster intensity, sum of 5 cycles each) (fold (ratio)); higher = stronger signal-on switching upon ATP binding; sequences stand for … in TCGTCGGCAGCGTCAGATGTGTATAAGAGACAGTTTTTTTTTTTTTTTTTTTTTTTTT…TC
# Conditions: aptamer strand: ATP DNA aptamer (quencher-CACCTGGGGGAGTATTGCGGAGGAAGG + anchor), 100 nM annealed; ATP concentration: 500 uM
# In short: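 The fluorescence ratio divides summed target-cycle Cy3 intensity by summed buffer-cycle Cy3 intensity for each cluster and is averaged per switch-domain sequence. Cy3-labelled switching-strand clusters on a modified Illumina MiSeq flow-cell were annealed to 100 nM quencher-labelled ATP aptamer, then imaged in selection buffer and again after 15 min with 500 uM ATP at 22 °C. Five such cycles were run, with NaOH stripping and re-annealing between them, and clusters outside 100-1000 RFU were excluded.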
# 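Further: ATP exposure 15 min at 22 °C before imaging.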
row,Sequence,switch fluorescence ratio
1,CGGAGTGAGG,1.02 ± 0.014
2,CGGAGTGCGG,0.983 ± 0.064
3,CGGAGTGCTT,1.03 ± 0.021
4,CGGAGTGGTA,1.09 ± 0.014
5,CGGAGTGTGC,1.23 ± 0.047
6,CGGAGTTGGA,1.04 ± 0.041
7,CGGATCCTTC,1.02 ± 0.037
8,CGGATCTCGC,1.03 ± 0.01
9,CGGATCTGAA,1.01 ± 0.016
10,CGGATCTTGT,0.961 ± 0.021
11,CGGATGGCGA,1.03 ± 0.021
12,CGGATGTAGC,1.02 ± 0.063
13,CGGATGTATA,0.988 ± 0.014
14,CGGATGTTGC,1.03 ± 0.05
15,CGGATGTTGG,1.02 ± 0.12
16,CGGATTCGAT,1.01 ± 0.011
17,CGGATTTGGA,0.976 ± 0.051
18,CGGATTTTTT,0.995 ± 0.021
19,CGGCAAATAG,2.52 ± 0.3
20,CGGCAAGGCT,1.22 ± 0.1
21,CGGCACCACA,1.08 ± 0.015
22,CGGCATTAAA,0.995 ± 0.0058
23,CGGCCCGCGA,1.94 ± 0.96
24,CGGCCTGATA,1.01 ± 0.028
25,CGGCCTTACC,1.334 ± 0.0037
26,CGGCCTTAGA,0.985 ± 0.029

row,Sequence,switch fluorescence ratio
1,CGGCGAAGGG,0.961 ± 0.014
2,CGGCGAATCC,1.033 ± 0.0088
3,CGGCGAGATA,1.01 ± 0.029
4,CGGCGCCTGC,1.08 ± 0.039
5,CGGCGCGTAG,1.05 ± 0.031
6,CGGCGGCTTC,1.01 ± 0.028
7,CGGCGTAAAA,1.13 ± 0.21
8,CGGCGTCGGG,1 ± 0.032
9,CGGCGTTCCG,1 ± 0.055
10,CGGCTACCCG,0.989 ± 0.049
11,CGGCTATCTC,1.381 ± 0.011
12,CGGCTATTAC,3.64 ± 1.3
13,CGGCTCTTTG,0.985 ± 0.043
14,CGGCTGGTAC,1.86 ± 0.027
15,CGGCTGGTTC,0.98 ± 0.04
16,CGGCTGTATG,0.988 ± 0.035
17,CGGCTTACCC,1.14 ± 0.2
18,CGGCTTACGT,0.993 ± 0.016
19,CGGCTTGCTG,1.03 ± 0.018
20,CGGCTTTATA,1.02 ± 0.028
21,CGGCTTTTGT,1 ± 0.029
22,CGGGAAGCAC,1.53 ± 0.34
23,CGGGACAAGT,0.982 ± 0.041
24,CGGGACACGT,0.9677 ± 0.0063
25,CGGGACAGGG,1 ± 0.013
26,CGGGACGCGT,1.021 ± 0.0039

row,Sequence,switch fluorescence ratio
1,CGGGACGGCA,1.01 ± 0.017
2,CGGGAGAACC,0.9981 ± 0.0082
3,CGGGAGAGAG,1.03 ± 0.014
4,CGGGAGGTA,1.0174 ± 1.4e-06
5,CGGGAGTGTC,0.89727 ± 0.00075
6,CGGGATGCCT,1 ± 0.021
7,CGGGATGGCT,0.996 ± 0.011
8,CGGGCAGATG,0.983 ± 0.028
9,CGGGCCACGC,1.04 ± 0.019
10,CGGGCCTATT,0.98938 ± 0.00074
11,CGGGCTCCGC,1.21 ± 0.099
12,CGGGCTCTGG,1.02 ± 0.0016
13,CGGGCTGGGG,0.993 ± 0.039
14,CGGGCTTCCT,1.21 ± 0.22
15,CGGGCTTGTG,1 ± 0.011
16,CGGGGAAACA,0.9943 ± 0.0077
17,CGGGGAAGGG,1.005 ± 0.0032
18,CGGGGAAGTC,1.02 ± 0.044
19,CGGGGACGGG,1.02 ± 0.013
20,CGGGGACTTG,0.987 ± 0.029
21,CGGGGAGAC,1.02 ± 0.062
22,CGGGGAGACG,0.929 ± 0.13
23,CGGGGAGCCA,1.001 ± 0.01
24,CGGGGAGGAG,1.02 ± 0.056
25,CGGGGATACG,1.01 ± 0.048
26,CGGGGATGTT,0.999 ± 0.035

row,Sequence,switch fluorescence ratio
1,CGGGGATTCC,1.06 ± 0.031
2,CGGGGATTCG,0.996 ± 0.026
3,CGGGGCAGGT,1.01 ± 0.021
4,CGGGGCCGGG,0.996 ± 0.017
5,CGGGGCGGTC,0.96 ± 0.047
6,CGGGGCGGTT,1 ± 0.032
7,CGGGGGAGAA,1 ± 0.034
8,CGGGGGAGCG,1 ± 0.045
9,CGGGGGAGGG,1.16 ± 0.45
10,CGGGGGATTG,0.988 ± 0.014
11,CGGGGGCATG,1.013 ± 0.0094
12,CGGGGGCGAA,0.996 ± 0.05
13,CGGGGGGAAA,1 ± 0.02
14,CGGGGGGACA,0.968 ± 0.041
15,CGGGGGGCTG,0.995 ± 0.04
16,CGGGGGGGA,1.0242 ± 0.00033
17,CGGGGGGGCG,1.03 ± 0.074
18,CGGGGGGGCT,0.997 ± 0.026
19,CGGGGGGGTA,1 ± 0.027
20,CGGGGGGTAA,1.01 ± 0.029
21,CGGGGGTAG,0.9982 ± 0.0021
22,CGGGGGTGCA,1 ± 0.0011
23,CGGGGGTGG,1.02 ± 0.062
24,CGGGGGTTCT,1.006 ± 0.0032
25,CGGGGGTTGA,1.03 ± 0.03
26,CGGGGTAATC,1.03 ± 0.047

row,Sequence,switch fluorescence ratio
1,CGGGGTAGCT,0.989 ± 0.035
2,CGGGGTCGGA,0.999 ± 0.035
3,CGGGGTCTGA,0.953 ± 0.028
4,CGGGGTGCTG,1.03 ± 0.03
5,CGGGGTTCCG,0.9532 ± 0.0064
6,CGGGGTTCGG,0.996 ± 0.023
7,CGGGGTTGGC,1.02 ± 0.061
8,CGGGGTTTT,0.999 ± 0.046
9,CGGGTAACGG,1.035 ± 0.0014
10,CGGGTAATGG,1.03 ± 0.07
11,CGGGTAATGT,0.978 ± 0.029
12,CGGGTAATTT,1.03 ± 0.019
13,CGGGTACATG,1.03 ± 0.048
14,CGGGTAGTAC,1.19 ± 0.03
15,CGGGTATAGC,0.996 ± 0.05
16,CGGGTATGCT,0.959 ± 0.025
17,CGGGTATGGA,1.02 ± 0.033
18,CGGGTATGTA,1 ± 0.0022
19,CGGGTCCATT,0.981 ± 0.0079
20,CGGGTCTGTG,0.999 ± 0.018
21,CGGGTGAATT,1.01 ± 0.071
22,CGGGTGACGA,1.03 ± 0.04
23,CGGGTGAGCA,0.996 ± 0.026
24,CGGGTGAGGT,1 ± 0.027
25,CGGGTGGGTC,1.29 ± 0.51
26,CGGGTGGTCG,0.8742 ± 0.0063

row,Sequence,switch fluorescence ratio
1,CGGGTGTTTT,1.055 ± 0.0089
2,CGGGTTACGA,1.02 ± 0.028
3,CGGGTTATGT,0.992 ± 0.044
4,CGGGTTCAT,1.01 ± 0.028
5,CGGGTTCGCC,0.981 ± 0.012
6,CGGGTTGCAT,1.023 ± 0.0087
7,CGGGTTGGGG,1 ± 0.016
8,CGGGTTGGTC,1.05 ± 0.041
9,CGGGTTTGGG,0.983 ± 0.016
10,CGGTAAATGT,1.05 ± 0.071
11,CGGTAACTGG,1.01 ± 0.048
12,CGGTACGAAT,1.034 ± 0.0096
13,CGGTAGCGCC,0.99 ± 0.06
14,CGGTAGGGGG,1.02 ± 0.049
15,CGGTAGTCAG,0.9983 ± 0.008
16,CGGTAGTTTT,0.99 ± 0.014
17,CGGTATAAGG,0.982 ± 0.046
18,CGGTATGATC,1.02 ± 0.022
19,CGGTATGGGG,1 ± 0.029
20,CGGTATGTG,1.01 ± 0.036
21,CGGTATTGTG,0.968 ± 0.028
22,CGGTCCGGCG,1.012 ± 0.0011
23,CGGTCCTTGG,0.99 ± 0.014
